Test results published in article PMC4519979 (Biochemistry, 2015).

B1: wild-type (WT) MscS (complex, E. coli)
chain: MEDLNVVDSINGAGSWLVANQALLLSYAVNIVAALAIIIVGLIIARMISNAVNRLMISRKIDATVADFLSALVRYGIIAFTLIAALGRVGVQTASVIAVLGAAGLAVGLALQGSLSNLAAGVLLVMFRPFRAGEYVDLGGVAGTVLSVQIFSTTMRTADGKIIVIPNGKIIAGNIINFSREPVRRNEFIIGVAYDSDIDQVKQILTNIIQSEDRILKDREMTVRLNELGASSINFVVRVWSNSGDLQNVYWDVLERIKREFDAAGISFPYPQMDVNFKRVKEDKAA
B2: MscS YFF (complex, E. coli)
chain: MEDLNVVDSINGAGSYLVANQALLLSYAVNIVAALAIIIVGLIIARMISNAVNRLMISRKIDATVADFLSALVRYGIIAFTLIAALGRVGVQTASVIAVLGAAGLAVGLALQGSLSNLAAGVLLVMFRPFRAGEYVDLGGVAGTVLSVQIFSTTMRTADGKIIVIPNGKIIAGNIINFSREPVRRNEFIIGVAYDSDIDQVKQILTNIIQSEDRILKDREMTVRLNELGASSINFVVRVFSNSGDLQNVYFDVLERIKREFDAAGISFPYPQMDVNFKRVKEDKAA
B3: MscS YFF G113W (complex, E. coli, UniProt P0C0S1 1-286, looked up)
chain: MEDLNVVDSINGAGSYLVANQALLLSYAVNIVAALAIIIVGLIIARMISNAVNRLMISRKIDATVADFLSALVRYGIIAFTLIAALGRVGVQTASVIAVLGAAGLAVGLALQWSLSNLAAGVLLVMFRPFRAGEYVDLGGVAGTVLSVQIFSTTMRTADGKIIVIPNGKIIAGNIINFSREPVRRNEFIIGVAYDSDIDQVKQILTNIIQSEDRILKDREMTVRLNELGASSINFVVRVFSNSGDLQNVYFDVLERIKREFDAAGISFPYPQMDVNFKRVKEDKAA
B4: MscS YFF A103W (complex, E. coli, UniProt P0C0S1 1-286, looked up)
chain: MEDLNVVDSINGAGSYLVANQALLLSYAVNIVAALAIIIVGLIIARMISNAVNRLMISRKIDATVADFLSALVRYGIIAFTLIAALGRVGVQTASVIAVLGAWGLAVGLALQGSLSNLAAGVLLVMFRPFRAGEYVDLGGVAGTVLSVQIFSTTMRTADGKIIVIPNGKIIAGNIINFSREPVRRNEFIIGVAYDSDIDQVKQILTNIIQSEDRILKDREMTVRLNELGASSINFVVRVFSNSGDLQNVYFDVLERIKREFDAAGISFPYPQMDVNFKRVKEDKAA
B5: MscS YFF T93W (complex, E. coli)
chain: MEDLNVVDSINGAGSYLVANQALLLSYAVNIVAALAIIIVGLIIARMISNAVNRLMISRKIDATVADFLSALVRYGIIAFTLIAALGRVGVQWASVIAVLGAAGLAVGLALQGSLSNLAAGVLLVMFRPFRAGEYVDLGGVAGTVLSVQIFSTTMRTADGKIIVIPNGKIIAGNIINFSREPVRRNEFIIGVAYDSDIDQVKQILTNIIQSEDRILKDREMTVRLNELGASSINFVVRVFSNSGDLQNVYFDVLERIKREFDAAGISFPYPQMDVNFKRVKEDKAA
B6: MscS YFF L105W (complex, E. coli, UniProt P0C0S1 1-286, looked up)
chain: MEDLNVVDSINGAGSYLVANQALLLSYAVNIVAALAIIIVGLIIARMISNAVNRLMISRKIDATVADFLSALVRYGIIAFTLIAALGRVGVQTASVIAVLGAAGWAVGLALQGSLSNLAAGVLLVMFRPFRAGEYVDLGGVAGTVLSVQIFSTTMRTADGKIIVIPNGKIIAGNIINFSREPVRRNEFIIGVAYDSDIDQVKQILTNIIQSEDRILKDREMTVRLNELGASSINFVVRVFSNSGDLQNVYFDVLERIKREFDAAGISFPYPQMDVNFKRVKEDKAA
B7: MscS YFF G101W (complex, E. coli, UniProt P0C0S1 1-286, looked up)
chain: MEDLNVVDSINGAGSYLVANQALLLSYAVNIVAALAIIIVGLIIARMISNAVNRLMISRKIDATVADFLSALVRYGIIAFTLIAALGRVGVQTASVIAVLWAAGLAVGLALQGSLSNLAAGVLLVMFRPFRAGEYVDLGGVAGTVLSVQIFSTTMRTADGKIIVIPNGKIIAGNIINFSREPVRRNEFIIGVAYDSDIDQVKQILTNIIQSEDRILKDREMTVRLNELGASSINFVVRVFSNSGDLQNVYFDVLERIKREFDAAGISFPYPQMDVNFKRVKEDKAA
B8: MscS YFF A94W (complex, E. coli)
chain: MEDLNVVDSINGAGSYLVANQALLLSYAVNIVAALAIIIVGLIIARMISNAVNRLMISRKIDATVADFLSALVRYGIIAFTLIAALGRVGVQTWSVIAVLGAAGLAVGLALQGSLSNLAAGVLLVMFRPFRAGEYVDLGGVAGTVLSVQIFSTTMRTADGKIIVIPNGKIIAGNIINFSREPVRRNEFIIGVAYDSDIDQVKQILTNIIQSEDRILKDREMTVRLNELGASSINFVVRVFSNSGDLQNVYFDVLERIKREFDAAGISFPYPQMDVNFKRVKEDKAA
B9: MscS YFF L109W (complex, E. coli, UniProt P0C0S1 1-286, looked up)
chain: MEDLNVVDSINGAGSYLVANQALLLSYAVNIVAALAIIIVGLIIARMISNAVNRLMISRKIDATVADFLSALVRYGIIAFTLIAALGRVGVQTASVIAVLGAAGLAVGWALQGSLSNLAAGVLLVMFRPFRAGEYVDLGGVAGTVLSVQIFSTTMRTADGKIIVIPNGKIIAGNIINFSREPVRRNEFIIGVAYDSDIDQVKQILTNIIQSEDRILKDREMTVRLNELGASSINFVVRVFSNSGDLQNVYFDVLERIKREFDAAGISFPYPQMDVNFKRVKEDKAA
B10: MscS YFF R88W (complex, E. coli, UniProt P0C0S1 1-286, looked up)
chain: MEDLNVVDSINGAGSYLVANQALLLSYAVNIVAALAIIIVGLIIARMISNAVNRLMISRKIDATVADFLSALVRYGIIAFTLIAALGWVGVQTASVIAVLGAAGLAVGLALQGSLSNLAAGVLLVMFRPFRAGEYVDLGGVAGTVLSVQIFSTTMRTADGKIIVIPNGKIIAGNIINFSREPVRRNEFIIGVAYDSDIDQVKQILTNIIQSEDRILKDREMTVRLNELGASSINFVVRVFSNSGDLQNVYFDVLERIKREFDAAGISFPYPQMDVNFKRVKEDKAA
B11: MscS YFF G90W (complex, E. coli)
chain: MEDLNVVDSINGAGSYLVANQALLLSYAVNIVAALAIIIVGLIIARMISNAVNRLMISRKIDATVADFLSALVRYGIIAFTLIAALGRVWVQTASVIAVLGAAGLAVGLALQGSLSNLAAGVLLVMFRPFRAGEYVDLGGVAGTVLSVQIFSTTMRTADGKIIVIPNGKIIAGNIINFSREPVRRNEFIIGVAYDSDIDQVKQILTNIIQSEDRILKDREMTVRLNELGASSINFVVRVFSNSGDLQNVYFDVLERIKREFDAAGISFPYPQMDVNFKRVKEDKAA
B12: MscS YFF A98W (complex, E. coli, UniProt P0C0S1 1-286, looked up)
chain: MEDLNVVDSINGAGSYLVANQALLLSYAVNIVAALAIIIVGLIIARMISNAVNRLMISRKIDATVADFLSALVRYGIIAFTLIAALGRVGVQTASVIWVLGAAGLAVGLALQGSLSNLAAGVLLVMFRPFRAGEYVDLGGVAGTVLSVQIFSTTMRTADGKIIVIPNGKIIAGNIINFSREPVRRNEFIIGVAYDSDIDQVKQILTNIIQSEDRILKDREMTVRLNELGASSINFVVRVFSNSGDLQNVYFDVLERIKREFDAAGISFPYPQMDVNFKRVKEDKAA
B13: MscS YFF I97W (complex, E. coli, UniProt P0C0S1 1-286, looked up)
chain: MEDLNVVDSINGAGSYLVANQALLLSYAVNIVAALAIIIVGLIIARMISNAVNRLMISRKIDATVADFLSALVRYGIIAFTLIAALGRVGVQTASVWAVLGAAGLAVGLALQGSLSNLAAGVLLVMFRPFRAGEYVDLGGVAGTVLSVQIFSTTMRTADGKIIVIPNGKIIAGNIINFSREPVRRNEFIIGVAYDSDIDQVKQILTNIIQSEDRILKDREMTVRLNELGASSINFVVRVFSNSGDLQNVYFDVLERIKREFDAAGISFPYPQMDVNFKRVKEDKAA

Target: the molecule itself
Test: native gel or EMSA; BN-PAGE with Western blot for the His tag; membranes (30 ug protein) solubilised in PBS pH 7.4 with 1% DDM, 2.8 M urea, 1 mM EDTA, 30 min, room temperature; heptamer to monomers
B1 was tested, and the “stoichiometry N” value was 7.
In the case of B2, the “stoichiometry N” value is reported as 7.

Target: the molecule itself
Test: native gel or EMSA; BN-PAGE after the fluorescence measurements of purified MscS reconstituted into DOPC bilayers (molar ratio 1:100; 40 mM HEPES pH 7.2, 100 mM KCl, 1 mM EGTA)
B3 was tested, and the “stoichiometry N” value was 7.
In the case of B4, the “stoichiometry N” value is reported as 7.
With B5 the “stoichiometry N” value was 7.
In the case of B6, the “stoichiometry N” value is reported as 7.
For B7, the “stoichiometry N” value was 7.
In the case of B8, the “stoichiometry N” value is reported as 7.

Target: the molecule itself
Test: FRET or BRET; homo-FRET between Trp residues of different subunits read by steady-state fluorescence anisotropy; heptameric and dissociated fractions from SEC, DDM-solubilised; excitation 295 nm, emission 340-360 nm
B9: binds.

Target: the molecule itself
Test: SEC; HiPrep Superdex 200 16/600 after Ni-NTA; 0.03% DDM, 50 mM sodium phosphate pH 7.5, 150 mM NaCl; ratio of heptamers to monomers
B10: binds.
B11: binds.
B12: binds.
B13: binds.
